# Source: the supplement of paper PMC12042874
# ± gives the uncertainty stated by the source.
# Assay: amyloid nucleation score (Sup35N fusion, yeast selection) (log enrichment); library NNK2; higher = more nucleation; inactive = no reads after selection
# In short: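 The nucleation score is a DiMSum log enrichment of output over input reads, centred on the mode score of non-aggregating sequences. Sequences under 100 input reads were excluded, and reads came from Illumina sequencing of plasmid inserts. Psi-negative yeast expressing Sup35N fused to peptides of 20 random codons were induced with 100 μM copper sulfate for 24 hours and grown 7 days at 30°C on medium lacking adenine and uracil. Random libraries had three technical output replicates.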
row,Substance,amyloid nucleation score
1,YMSVSSKGQRVCFTT,-0.488 ± 0.63
2,YMTVLLMSVFNWSQSRRPP,3.55 ± 0.077
3,YMVLSHVVQPFNHLGISWPC,inactive
4,YMYLTCSLGSVCRFLSEHMW,-0.605 ± 0.36
5,YNARFSTNLTRFGVGF,-1.15 ± 1.1
6,YNCLRMELVLSHKGDLTLM,5.25 ± 0.091
7,YNIFPIISLITRNK,6.42 ± 0.064
8,YNKGPLTGMFYMEGASVNIC,inactive
9,YNLYHSCLDQRTYHSGKFSI,2.3 ± 0.14
10,YNSCSYEIILGDFLWLLTGQ,0.624 ± 0.2
11,YNSTALKVSWRVRLGPWNWI,-0.06 ± 1.1
12,YNSVVADKWCSFSK,0.155 ± 1.1
13,YNYPSVNIRLKIDLAGSLGC,2.65 ± 0.097
14,YNYWMQSLGSWVEVLSSVSV,-0.365 ± 0.5
15,YPCVMFFPEPGEYCLVYRC,-0.608 ± 1.1
16,YPNRFINTCFVRCNISLNNY,8.485 ± 0.061
17,YPSCKGSMPVFYSFPGGENA,0.524 ± 0.5
18,YRACCVYNLGEVEWGVWVVC,-0.31 ± 0.21
19,YRARKASLTDVSSSVKVNMS,-0.026 ± 0.63
20,YRFRSLSM,-1.14 ± 0.4
21,YRILVNFAVVSMVRINRSFW,-1.48 ± 0.78
22,YRLYHILECSGVMMS,-1.01 ± 0.44

row,Substance,amyloid nucleation score
1,YRPNN,2.43 ± 0.14
2,YRPRDCISRVTYMRTVIVIL,-0.121 ± 1.1
3,YRQMIRDYWIEKQSLHIRAD,0.27 ± 0.56
4,YRRGRLSMRSVWTKGCKERM,inactive
5,YRVFRFCNMASYLVSICHNG,-1.2 ± 0.64
6,YSFAMLGGQESRMSMCCGER,0.791 ± 0.32
7,YSFCWLYNYPFIFYGFAFED,5.951 ± 0.056
8,YSFLHVIGANKFARACNNWS,-0.565 ± 0.78
9,YSFMS,-0.458 ± 0.27
10,YSFYAKSW,inactive
11,YSGFI,inactive
12,YSGFLRCLAYALI,0.061 ± 0.8
13,YSGTWLMVHKNLMVRKKLVP,0.499 ± 0.38
14,YSLCTTPMRAWVSYVFDVR,-1.04 ± 0.64
15,YSLVRIFDGVWITRDSCNIL,inactive
16,YSLYEYFKSHLRKACVMPGW,inactive
17,YSNRLYFVLEAVVYL,1.41 ± 0.32
18,YSPSRVS,-0.493 ± 0.48
19,YSRVILFHNGQMGVVMVPRW,inactive
20,YSSAGDVMLNRQLDGCWLTR,-0.006 ± 0.53
21,YSSFFHFRVCNLCRWGSVSN,0.121 ± 0.18
22,YSSMGDNSRVRSFFVAVAGG,inactive

row,Substance,amyloid nucleation score
1,YSTEPSRHGIWNG,-0.735 ± 0.56
2,YSVFNTSNFSALDPRFRRLF,0.201 ± 0.8
3,YSVYKTLA,-1.51 ± 0.78
4,YSWVGLCPLIGRLYTGFAN,-1.71 ± 0.54
5,YSWWW,1.15 ± 0.66
6,YTAIVRFWWVTQSVQFKNRD,-0.143 ± 0.8
7,YTEQVYVYLGFLSHGASRYL,-0.716 ± 1.1
8,YTISSIVVLDMFS,1.41 ± 0.21
9,YTKSQGAFT,-0.135 ± 0.65
10,YTLFYARNLSSMDVICN,-1.09 ± 0.76
11,YTNHSLNMHLWCRNS,inactive
12,YTRLYFNEHDFYFFVGIMT,inactive
13,YTRSYGPFPSHLVNLARNLS,-0.905 ± 0.32
14,YTTNIF,-0.793 ± 0.49
15,YTVWEEYHRAKSSGLT,1 ± 0.33
16,YTYSYATLNMWFQLT,6.59 ± 0.033
17,YVATKYMRLNTCNLFWGGLT,6.368 ± 0.05
18,YVATVWPLQSKRLSHRLMNG,0.695 ± 0.43
19,YVCFQFFDTC,8.406 ± 0.038
20,YVCGRENILFFERLKS,-0.327 ± 0.45
21,YVCGWINVLG,-0.661 ± 0.63
22,YVDWVNRTFQWFTGDVDDPV,-0.107 ± 0.39

row,Substance,amyloid nucleation score
1,YVGGTVGV,-0.807 ± 0.64
2,YVHVNIRYFYSLGDAVDKMP,4.86 ± 0.11
3,YVLGVF,0.045 ± 0.79
4,YVLPLPGNLNIMEAAGRYYA,4.04 ± 0.057
5,YVMSAVFYSVRFVAIETCKV,0.155 ± 0.57
6,YVNNLGRFCLLYRPWGMVNS,-0.196 ± 1.1
7,YVQVFRSLDYNHHAKS,-0.508 ± 0.39
8,YVRYGP,-0.289 ± 0.26
9,YVSDYG,0.199 ± 0.8
10,YVSEQTHPMVIMYHFLRQHQ,-0.181 ± 0.5
11,YVSLNQRVNFA,-1.47 ± 0.76
12,YVSSVAIAFGLSVGLAYYPP,5.26 ± 0.059
13,YVYWWTYERMVSWSIYCVNT,2.96 ± 0.097
14,YWKVFFKAGWVVQSSAGMSA,4.64 ± 0.068
15,YWTGGLHNEHLSMHVSVYSN,-0.527 ± 1.1
16,YWVGIDRHFHGRQYCKAGA,1.11 ± 0.45
17,YWYWWSSWY,1.6 ± 0.29
18,YYEYGL,-0.298 ± 0.4
19,YYGQSPALDRR,-0.238 ± 0.45
20,YYIAI,-0.619 ± 1
